This passage reports Kd, koff and kon results from US20170101469A1 (FOURTH MILITARY MEDICAL UNIVERSITY, published 2017).

Experiment [1] concerns the target T1, human CD147 antigen (human, UniProt P35613-2 22-205, limits assumed).
T1 sequence (looked up): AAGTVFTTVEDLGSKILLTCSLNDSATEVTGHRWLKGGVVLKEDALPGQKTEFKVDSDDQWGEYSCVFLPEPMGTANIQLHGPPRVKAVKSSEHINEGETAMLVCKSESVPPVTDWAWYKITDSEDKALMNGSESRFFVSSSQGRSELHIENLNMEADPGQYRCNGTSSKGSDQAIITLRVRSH
The experiment can be described thus: SPR, ProteOn XPR36, antibody amine-coupled to GLC chip, human CD147 0.375-6 nM as analyte, 25 C; first set of experiments (FIG. 3A). As for the experimental part:
(§1) The affinity (KD) for the binding of human CD147 antigen to selected antibodies was measured by Surface plasmon resonance analysis on a multi-SPR array system (ProteOn XPR36™, Bio-Rad). Data analysis was performed using ProteOn Manager Software (Bio-Rad). Briefly, the running buffer PBST (0.005% Tween-20 in PBS) was used continuously throughout the entire experiment at 25° C. A ProteOn GLC sensor chips (Bio-Rad) was activated for 6 min using a mixture of 0.2M EDC and 5 mM sulfo-NHS at a flow rate of 20 μl/min, followed by diluting 260 μl of 10 μg/mL each antibody in 10 mM acetate buffer at pH 4.5. The surface of the sensor chip was then deactivated with 150 μl of IM Ethanolamine Hydrochloride (pH 8.5). The sensor surface was regenerated through a wash (about 3 min) with HBS-EP buffer until the baseline was restored. A reference cell without antibodies was prepared by a similar procedure. 5 different concentrations of human CD147 antigen (0.375, 0.75, 1.5, 3, and 6 nM) were injected in channels 1 to 5, respectively, at flow rate of 50 μl/min, 3 min. A reference channel was prepared in the same manner without injection of CD147 antigen. The SPR binding responses were collected and analyzed using the ProteOn data manager program. […]
A general note: Surface plasmon resonance follows binding to a sensor surface in real time, without labels.

Experiment [2] has as its target T1, human CD147 antigen. The experiment in a line: SPR, ProteOn XPR36, antibody amine-coupled to GLC chip, human CD147 0.375-6 nM as analyte, 25 C; second set of experiments (FIG. 3B). The procedure:
as §1

Experiment [3] concerns the target T1, human CD147 antigen. The experiment can be described thus: SPR (ProteOn XPR36), antibody immobilised on a GLC chip, human CD147 antigen injected at 0.375-6 nM, 25 C. As for the experimental part:
The affinity (KD) for the binding of human CD147 antigen to selected antibodies was measured by Surface plasmon resonance analysis on a multi-SPR array system (ProteOn XPR36™, Bio-Rad). Data analysis was performed using ProteOn Manager Software (Bio-Rad). Briefly, the running buffer PBST (0.005% Tween-20 in PBS) was used continuously throughout the entire experiment at 25° C. A ProteOn GLC sensor chips (Bio-Rad) was activated for 6 min using a mixture of 0.2M EDC and 5 mM sulfo-NHS at a flow rate of 20 μl/min, followed by diluting 260 μl of 10 μg/mL each antibody in 10 mM acetate buffer at pH 4.5. The surface of the sensor chip was then deactivated with 150 μl of IM Ethanolamine Hydrochloride (pH 8.5). The sensor surface was regenerated through a wash (about 3 min) with HBS-EP buffer until the baseline was restored. A reference cell without antibodies was prepared by a similar procedure. 5 different concentrations of human CD147 antigen (0.375, 0.75, 1.5, 3, and 6 nM) were injected in channels 1 to 5, respectively, at flow rate of 50 μl/min, 3 min. A reference channel was prepared in the same manner without injection of CD147 antigen. The SPR binding responses were collected and analyzed using the ProteOn data manager program.
Two sets of experiments were performed, in the first set of experiments, the human CD147 binding affinity of HAb18 and Metuzumab were compared (data shown in FIG. 3A), in the second set of experiments the human CD147 binding affinity of cHAb18 and Metuzumab were compared (data shown in FIG. 3B).

B1: Metuzumab (antibody, human IgG1, kappa, V domains shown)
VH: EVKLEESGGGLVQPGGSMKLSCVASGFTFSDAWMDWVRQSPEKGLEWVAEIRSKANNHAPYYTESVKGRFTISRDDSKSIIYLQMNNLRAEDTGIYYCTRDSTATHWGQGTLVTVSA
VL: SIVMTQTPTFLVVSAGDRVTITCKASQSVINDVAWYQQKPGQSPKLLIFYASNRNTGVPDRFTGSGYGTDFTFTISTVQAEDLAVYFCQQDYSPPFTFGSGTKLEIKR
modifications: N-linked Mannose-5 oligosaccharide in the Fc region, no fucose or xylose residue detected (site not numbered in the filing)
notes: Human-mouse chimeric IgG1 made in acetyl-glucosamine transferase deficient CHO K1 MAGE1.5 cells; only the glycoform differs; Residues 1-16 are left out on that basis; also called HcHAb18; glycosylation modified chimeric antibody Metuzumab
B1: in experiment [1], the Kd (commonly a measure of binding affinity in units of concentration) amounted to 0.321 nM. Binding in experiment [2] was put at a Kd of 0.429 nM. Besides, in experiment [3], the affinity, expressed as Kd, was 0.362 nM; the off-rate (koff) (in general, a measure of how fast the partners let go of each other) was determined as 0.000417 s⁻¹; the association rate constant (kon) (usually the second-order rate constant of association) was found to be 1.15e+06 M⁻¹ s⁻¹.

B2: cHAb18 (antibody, human IgG1, kappa, V domains shown)
VH: EVKLEESGGGLVQPGGSMKLSCVASGFTFSDAWMDWVRQSPEKGLEWVAEIRSKANNHAPYYTESVKGRFTISRDDSKSIIYLQMNNLRAEDTGIYYCTRDSTATHWGQGTLVTVSA
VL: SIVMTQTPTFLVVSAGDRVTITCKASQSVINDVAWYQQKPGQSPKLLIFYASNRNTGVPDRFTGSGYGTDFTFTISTVQAEDLAVYFCQQDYSPPFTFGSGTKLEIKR
modifications: N-linked fucosylated oligosaccharides, G0F, G1F and G1F' glycoforms (site not numbered in the filing)
notes: Human-mouse chimeric IgG1 made in CHO K1 cells; also called chimeric antibody cHAb18; cHAb18 mAb
Consider B2, for which the Kd in experiment [2] stood at 0.475 nM.

B3: HAb18 (antibody, V domains shown)
VH: EVKLEESGGGLVQPGGSMKLSCVASGFTFSDAWMDWVRQSPEKGLEWVAEIRSKANNHAPYYTESVKGRFTISRDDSKSIIYLQMNNLRAEDTGIYYCTRDSTATHWGQGT
VL: SIVMTQTPTFLVVSAGDRVTITCKASQSVINDVAWYQQKPGQSPKLLIFYASNRNTGVPDRFTGSGYGTDFTFTISTVQAEDLAVYFCQQDYSPPFTFGSGTKLEIKR
notes: Murine monoclonal antibody from hybridoma CGMCC NO; 0426; The variable domains are tied to HAb18 through cHAb18, whose variable domains are 'derived from HAb18'; also called original mouse antibody HAb18; anti-CD147 murine monoclonal antibody HAb18
On to B3, for which the Kd in experiment [1] was 0.362 nM. In experiment [3], the dissociation constant Kd was found to be 0.321 nM, the koff amounted to 0.000351 s⁻¹ and the kon came out at 1.09e+06 M⁻¹ s⁻¹.
